In paper PMC8800519 (Journal of Molecular Cell Biology, 2021):

Target: recombinant mouse α1C/β2A tubulin heterodimer (mouse, UniProt P68373;Q7TMM9)
Experiment: single-molecule TIRF microscopy

recombinant mouse α1C/β2A tubulin heterodimer, sequence (P68373 whole entry, one chain of several): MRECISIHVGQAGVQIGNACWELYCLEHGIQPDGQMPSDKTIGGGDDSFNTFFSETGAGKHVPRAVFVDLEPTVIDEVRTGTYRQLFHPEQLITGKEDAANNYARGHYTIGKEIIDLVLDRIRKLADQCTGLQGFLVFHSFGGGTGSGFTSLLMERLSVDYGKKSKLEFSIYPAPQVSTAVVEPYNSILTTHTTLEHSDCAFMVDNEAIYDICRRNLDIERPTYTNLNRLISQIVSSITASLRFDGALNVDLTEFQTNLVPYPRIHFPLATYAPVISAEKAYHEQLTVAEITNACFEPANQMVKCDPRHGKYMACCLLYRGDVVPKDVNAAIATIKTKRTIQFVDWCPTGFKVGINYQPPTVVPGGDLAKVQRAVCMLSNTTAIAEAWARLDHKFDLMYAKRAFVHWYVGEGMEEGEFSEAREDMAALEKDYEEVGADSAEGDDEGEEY

B1: EB1-GFP (full-length human EB1 with a GFP tag) (natural protein)
chain: MAVNVYSTSVTSDNLSRHDMLAWINESLQLNLTKIEQLCSGAAYCQFMDMLFPGSIALKKVKFQAKLEHEYIQNFKILQAGFKRMGVDKIIPVDKLVKGKFQDNFEFVQWFKKFFDANYDGKDYDPVAARQGQETAVAPSLVAPALNKPKKPLTSSSAAPQRPISTQRTAAAPKAGPGVVRKNPGVGNGDDEAAELMQQVNVLKLTVEDLEKERDFYFGKLRNIELICQENEGENDPVLQRIVDILYATDEGFVIPDEGGPQEEQEEY
**Q.** Does B1 bind?
**A.** binds
